Assay results as given in US20130030156A1 (Merck Sharp & Dohme, published 2013).

Target: T1, human ILT5 on the surface of human peripheral blood cells (human, UniProt O75022 24-631)
T1 construct: whole, on cells; Endogenous ILT5 on primary human cells; also called surface ILT5; hILT5
Assay: flow cytometry, TRX585 staining of human PBMCs
Description: The latter plots show the levels of two fluorescent parameters (i.e., fluorescent antibodies) on various cell subpopulations, quantitate the proportions of cells displaying these parameters, and indicate the frequency of cells present at each point in the plot. Here, peripheral blood mononuclear cells (PBMCs) from a healthy human donor were stained with the TRX585 antibody as well as antibodies specific for the indicated cell subset. In FIG. 1A, plots depict ILT5 (TRX585) expression by gated CD56⁻CD3⁺CD4⁺ or CD56⁻CD3⁺CD8⁺ T cells. In FIG. 1B, PBMCs were stained as in (A) and subsequently stained for intracellular Foxp3. Plots show ILT5 expression by gated CD56⁻CD3⁺CD4⁺Foxp3⁺ or CD56⁻ CD3⁺CD4⁺Foxp3⁻ T cells. […] Percentages of gated cells and mean fluorescence intensity of the ILT5-staining of ILT5⁺ cells are depicted inside and above plots, respectively. […]
Peripheral blood mononuclear cells (PBMCs) from healthy human blood donors were stained with a murine monoclonal antibody (TRX585) comprising a heavy chain variable region comprising the amino acid sequence of SEQ ID NO: 2 or SEQ ID NO: 3, and a light chain variable region comprising the amino acid sequence of SEQ ID NO: 1. […] PBMCs were also stained with antibodies specific for defined hematopoietic cell lineages and analyzed for ILT5 expression by flow cytometry.

T1 sequence (O75022 24-631): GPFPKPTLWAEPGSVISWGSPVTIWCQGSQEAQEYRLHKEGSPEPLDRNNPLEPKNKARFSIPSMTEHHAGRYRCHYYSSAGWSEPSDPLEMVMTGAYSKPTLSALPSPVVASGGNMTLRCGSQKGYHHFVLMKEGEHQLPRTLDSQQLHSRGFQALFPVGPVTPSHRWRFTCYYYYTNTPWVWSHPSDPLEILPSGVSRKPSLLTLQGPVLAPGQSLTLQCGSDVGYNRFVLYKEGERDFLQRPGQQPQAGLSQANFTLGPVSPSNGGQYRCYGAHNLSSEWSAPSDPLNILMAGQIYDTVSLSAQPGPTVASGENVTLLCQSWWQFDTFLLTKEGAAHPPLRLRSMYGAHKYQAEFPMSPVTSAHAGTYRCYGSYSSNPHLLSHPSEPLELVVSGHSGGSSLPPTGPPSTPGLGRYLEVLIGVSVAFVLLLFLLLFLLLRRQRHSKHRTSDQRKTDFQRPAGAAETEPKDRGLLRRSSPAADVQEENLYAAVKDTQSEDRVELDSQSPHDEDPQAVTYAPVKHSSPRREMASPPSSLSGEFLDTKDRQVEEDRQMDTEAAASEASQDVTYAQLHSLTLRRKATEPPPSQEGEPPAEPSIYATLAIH

- binding result: binds
B1: TRX585 (8G6 mAb), mouse anti-human ILT5 monoclonal antibody (antibody, V domains shown)
VH: DVQLQESGPGLVKPSQSLFLTCSVTGYSISSSYYWNWIRQFPGNKLEWMGYISFDGSNNYNPSLKNRISITRDTSKNQFFLKLNSVTTEDTATYYCAREKENYYGSSFYYFDYWGLGTSLTVSS
VL: DIQMTQSPASLSVSVGETVTITCRASENIYSNLAWYQQKQGKSPQVLVYAATNLADGVPSRFSGSGSGTQFSLKINSLQSEDFGNYFCQHFWRIPWTFGGGTKLEIK
notes: Murine monoclonal antibody, IgG1, kappa, purified from hybridoma supernatant; also called TRX585 antibody; TRX585 mAb
